In US20210093667:

Assays:
[1] = tested on: dPspCas13b-ADAR2DD(E488Q) (REPAIRv1) H133A,H1058A (Prevotella sp. P5-125 / Homo sapiens); assay: cell_activity
[2] = tested on: dPspCas13b-ADAR1DD H133A,H1058A (Prevotella sp. P5-125 / Homo sapiens); assay: cell_activity; details: on-target A-to-I RNA editing

Substance: Cluc W85X targeting guide ; Cluc W85X transcript (254 A>G site)
- activity ([1]; 10 ng Cas13-ADAR transfected): 80 % editing
- activity ([1]; 150 ng Cas13-ADAR transfected): 83 % editing
- activity ([1]; on-target A-to-I RNA editing): 71 % editing
- activity [2]: 29 % editing
